Test results as given in patent US20210230599, “STEM-LOOP COMPOSITIONS AND METHODS FOR INHIBITING INTERLEUKIN-8” (VITRISA THERAPEUTICS, INC., published 2021).
Residue numbers refer to the chain shown, from its start.

Assays:
[1] = target: T1, Interleukin-8 (IL8, CXCL8), C-terminal His-tagged (Homo sapiens, UniProt P10145 SEQ:1-72); test: TR-FRET; bead flow 21 nM; conditions: tags: C-terminal 6xHis (Sino Biological); label: Alexa Fluor 647
Experimental: (§1) Aptamers were synthesized and labeled with ALEXA FLUOR® 647, and binding to IL8 was quantified by Time-Resolved Fluorescence Resonance Energy Transfer (TR-FRET). Briefly, 2-fold dilutions of thermally equilibrated aptamers were made in TR-FRET Buffer (50 mM MOPS, pH 7.4, 125 mM NaCl, 5 mM KCl, 50 μM CHAPS, 0.1 mg/mL BSA, 1 mM CaCl₂ and 1 mM MgCl₂). […] of aptamer or control solution was added to 10 μL of 15 nM C-His-tagged-IL8 (Sino Biological) in a black wall half-area plate (Corning). In the same plate, 10 μl of aptamer solution was added to 10 μl of TR-FRET buffer alone to use for background subtraction. 10 μl of 15 nM anti-His-Eu (Perkin Elmer) was added to each well, the plate was covered with a plate seal and subsequently incubated in the dark for 1 hour at room temperature. The plate was read on a Biotek CYTATION™ 5 plate reader. Samples were excited at 330 nm and fluorescent values were collected at 665 nm. […] Apparent Kd values obtained for the fits are calculated as the concentration of half-maximal binding and shown in Table 10, and fit curves as FIG. 6. […] It is also possible that differences may arise due to TR-FRET being a homogenous solution binding assay, while bead binding has immobilized ligand and is non-homogenous, so bound aptamers may dissociate during analysis resulting in higher calculated Kd values.

[2] = target: T1, Interleukin-8 (IL8, CXCL8), C-terminal …; test: TR-FRET; bead flow 10 nM; conditions: tags: C-terminal 6xHis (Sino Biological); label: Alexa Fluor 647
Experimental: as §1

[3] = target: T1, Interleukin-8 (IL8, CXCL8), C-terminal …; test: competition; competition TR-FRET; U20C; conditions: tags: C-terminal 6xHis (Sino Biological)
[4] = target: T1, Interleukin-8 (IL8, CXCL8), C-terminal …; test: competition; competition TR-FRET; U20A; conditions: tags: C-terminal 6xHis (Sino Biological)
Experimental: (§2) To better understand the sequence requirements and to confirm the stem structures of members of the Aptamer 3 family as determined from sequence covariation analysis from both the primary and secondary (degenerate) selections, a series of variants which included mutations and deletions to the predicted stems were synthesized and screened (Table 24). Activity of each of these variants were tested using a time resolved competition TR-FRET assay in which the labeled parent Aptamer 3 was competed with increasing concentrations of unlabeled variants for binding to IL8 (FIG. 14). Briefly, 2-fold dilutions of thermally equilibrated aptamers were made in TR-FRET Buffer (50 mM MOPS, pH 7.4, 125 mM NaCl, 5 mM KCl, 50 μM CHAPS, 0.1 mg/mL BSA, 1 mM CaCl₂, and 1 mM MgCl₂). 5 μL of aptamer or control solution was added to 5 μl mix of 10 nM C-terminal His-tagged-IL8, 60 nM ALEXA FLUOR® 647-labeled Aptamer, and 5 nM anti-His-Eu (Perkin Elmer) in a black wall low volume 384 well plate (Greiner). For control, 5 μl of 1000-fold excess of unlabeled parent aptamer or 5 μl TR-FRET buffer alone was added to the mix of ALEXA FLUOR® 647-labeled aptamer, His-IL8, and anti-His-Eu. The plate was covered with a plate seal and subsequently incubated in the dark for 1 hour at room temperature. The plate was read on a Biotek CYTATION™ 5 plate reader. […]

[5] = target: T1, Interleukin-8 (IL8, CXCL8), C-terminal …; test: TR-FRET; bead flow 11 nM; conditions: tags: C-terminal 6xHis (Sino Biological); label: Alexa Fluor 647
Experimental: as §1

[6] = target: T1, Interleukin-8 (IL8, CXCL8), C-terminal …; test: TR-FRET; bead flow 19 nM; conditions: tags: C-terminal 6xHis (Sino Biological); label: Alexa Fluor 647
Experimental: as §1

[7] = target: T1, Interleukin-8 (IL8, CXCL8), C-terminal …; test: TR-FRET; bead flow 20 nM; conditions: tags: C-terminal 6xHis (Sino Biological); label: Alexa Fluor 647
Experimental: as §1

[8] = target: T1, Interleukin-8 (IL8, CXCL8), C-terminal …; test: TR-FRET; bead flow 16 nM; conditions: tags: C-terminal 6xHis (Sino Biological); label: Alexa Fluor 647; stem-loop (Aptamer 3 family)
Experimental: as §1

[9] = target: T1, Interleukin-8 (IL8, CXCL8), C-terminal …; test: TR-FRET; bead flow 7 nM; conditions: tags: C-terminal 6xHis (Sino Biological); label: Alexa Fluor 647
Experimental: as §1

[10] = target: T1, Interleukin-8 (IL8, CXCL8), C-terminal …; test: competition; competition TR-FRET; S2 shortened; conditions: tags: C-terminal 6xHis (Sino Biological)
Experimental: as §2

[11] = target: T1, Interleukin-8 (IL8, CXCL8), C-terminal …; test: competition; competition TR-FRET; conditions: tags: C-terminal 6xHis (Sino Biological)
Experimental: as §2

[12] = target: T1, Interleukin-8 (IL8, CXCL8), C-terminal …; test: inhibition; inhibition of IL8 binding to CXCR1 cells, protein limited; neutrophil migration 3 nM; conditions: tags: C-terminal His (Sino Biological); stem-loop
Experimental: CXCR1 overexpressing cells were used to confirm that aptamers could block IL8 binding to its cognate receptor, CXCR1, in a functional setting. Briefly, CXCR1-overexpressing cells were plated in a 96 well plate and seeded overnight. Serially diluted aptamers and 5 nM IL8 were mixed in cell culture media and applied to cells for 2 hours at 37° C. Media was aspirated, and cells were washed 3× with PBS for 5 minutes. Cells were lysed in Ultra HiBlock Buffer (Perkin Elmer) with gentle agitation. IL8 levels were determined using Ultra TR-FRET (Perkin Elmer).

[13] = target: T1, Interleukin-8 (IL8, CXCL8), C-terminal …; test: cell_activity; neutrophil migration, 3 nM IL8, protein limited; conditions: tags: C-terminal His (Sino Biological); stem-loop
Experimental: (§3) Freshly isolated primary human neutrophil migration stimulated by IL8 was measured using a transwell assay. Neutrophils were isolated from fresh whole human blood using Polymorphprep™ (AXIS Shield) and then were re-suspended in assay buffer (RPMI+0.1% Human Serum Albumin) at 10\hat{ }6 cells/mL. 5 μm Transwell inserts (Corning) were activated with […] in the plate and 100 µL of assay buffer in the transwell at 37° C. 3 nM IL8 and aptamers or controls were incubated for 1 hour, then 200 µL of the aptamer/IL8 mix was added to each well and 100 μL of neutrophils was added to the transwell. Aptamer inhibition was tested at two concentrations: 10 nM and 100 nM. After 45 minutes at 37° C., 100 μL from each well was transferred to a white 96-well plate with 50 μL of lysis buffer. The number of cells that migrated from the transwell to the well was quantified by ATPLITE® Luminescence Assay System (Perkin Elmer). In Table 13, values are normalized to 3 nM IL8 treatment and average between replicates with standard deviation. 3 nM IL8 activity inhibited by at least 50% at 10 nM aptamer concentration is consistent with aptamers having IC₅₀ values of 10 nM or better, as observed for Aptamer 3 and Aptamer 8.
The neutrophil migration assay described in Example 6 was used to further characterize optimized variants of Aptamer 3. […]

[14] = target: T1, Interleukin-8 (IL8, CXCL8), C-terminal …; test: as above; conditions: tags: C-terminal His (Sino Biological); stem-loop; remark: listed apart in the source
Experimental: as §3
The neutrophil migration assays described in Examples 6 and 18 were used to confirm the activity of Aptamers 8, 212, and 248. Assays were performed as described in those examples.

[15] = target: T1, Interleukin-8 (IL8, CXCL8), C-terminal …; test: competition; competition TR-FRET; conditions: tags: C-terminal His (Sino Biological); stem-loop

Question: Which Kd [1] does the source give for UCGCUUGUACCUCUGAGAUGUGAGACUAAUGUAGGU (ssRNA, 2'-F G, 2'-OMe A/C/U, 5' C6NH2, 3' idT) [Aptamer 13] here?
Answer: 7 nM

Question: How did the Kd [2] turn out when UUAAGCGCUGAGACGAGAGAUUAAUGCCGCUUGCCU (ssRNA, 2'-F G, 2'-OMe A/C/U, 5' C6NH2, 3' idT) [Aptamer 21] was run?
Answer: 7 nM

Question: Does CGGUGGGAAAUGUGAGACGGGUUGCCG (ssRNA, 2'-F G, 2'-OMe A/C/U, 5' C6NH2, 3' idT) [Aptamer 54] bind [3]?
Answer: binds

Question: Does CGGUGGGAAAUGUGAGAAGGGUUGCCG (ssRNA, 2'-F G, 2'-OMe A/C/U, 5' C6NH2, 3' idT) [Aptamer 59] bind [4]?
Answer: binds

Question: Which Kd [5] does the source give for UAGCGGCCGAAGUUAGCGUACGUUUGCCGGGUACGU (ssRNA, 2'-F G, 2'-OMe A/C/U, 5' C6NH2, 3' idT) [Aptamer 2] here?
Answer: 9 nM

Question: For UUGCCCUUUGAUCGUACCGAGGCGGGGAAGUACGAU (ssRNA, 2'-F G, 2'-OMe A/C/U, 5' C6NH2, 3' idT) [Aptamer 24], which Kd [6] is on record?
Answer: 9 nM

Question: For UCGUGAAGGGCGAUUCUGGUGCGUGUUCCCUCGCGU (ssRNA, 2'-F G, 2'-OMe A/C/U, 5' C6NH2, 3' idT) [Aptamer 5], which Kd [7] is on record?
Answer: 10 nM

Question: For UUGGCCACAGUAGAUUUCGGUGCGUGUGACUGGGCU (ssRNA, 2'-F G, 2'-OMe A/C/U, 5' C6NH2, 3' idT) [Aptamer 12], which Kd [8] is on record?
Answer: 12 nM

Question: How did the Kd [9] turn out when UCUGAAUCGGCUGAAACGGGAGCAUUAAUGUCCGGU (ssRNA, 2'-F G, 2'-OMe A/C/U, 5' C6NH2, 3' idT) [Aptamer 22] was run?
Answer: 15 nM

Question: How did the binding signal [10] turn out when GCGACGCAGAUUACGGGUAGAGUGGCGCGC (ssRNA, 2'-F G, 2'-OMe A/C/U, 5' C6NH2, 3' idT) [Aptamer 45] was run?
Answer: > 10 fold worse than Aptamer 3

Question: Does GGCGACGGUAGAUUUUGGGUAGUGUGACCGCGCC (ssRNA, 2'-F G, 2'-OMe A/C/U, 5' C6NH2, 3' idT) [Aptamer 193] bind [11]?
Answer: binds

Question: Does GGCGACGGUAGAUUUUGGGCAGUGUGACCGCGCC (ssRNA, 2'-F G, 2'-OMe A/C/U, 5' C6NH2, 3' idT) [Aptamer 197] bind [11]?
Answer: binds

Question: UGAUGACGGUAGAUUAUGGGCAGUGUGACCGCAUCU (ssRNA, 2'-F G; 2'-OMe A,C,U; 5' C6NH2; 3' idT) [Aptamer 99] was tested. Which IC50 [12] did it give?
Answer: 4 nM

B1: Aptamer 269 (ssRNA)
RNA: GGCGACGGUAGAUUAUGGGCAGUGUGACCGCGCC
modifications: 2'-F G except 2'-OMe G at X (XXCX-A-CXXU-AX-AU-UAUGGGCAGU-GU-G-ACCX-CXCC); 2'-OMe A,C,U; 5' C6NH2; 3' idT
Question: With B1 as the binder, how does the IC50 [12] read?
Answer: 3 nM

Question: Which IC50 [13] does the source give for UGAUGACGGUAGAUUUCGGGUAGUGUGACCGCAUCU (ssRNA, 2'-F G; 2'-OMe A,C,U; 5' C6NH2; 3' idT) [Aptamer 94] here?
Answer: 3 nM

Question: Which IC50 [13] does the source give for GGCGACGGUAGAUUUCGGGUAGUGUGACCGCGCC (ssRNA, 2'-F G; 2'-OMe A,C,U; 5' C6NH2; 3' idT) [Aptamer 143] here?
Answer: 2 nM

Question: UACGGUGGGAAAUGUGAGAUGGGUUGCCGUAUUUU (ssRNA, 2'-F G; 2'-OMe A,C,U; 5' C6NH2; 3' idT) [Aptamer 8] was tested. Which IC50 [14] did it give?
Answer: 2 nM

B2: Aptamer 248 (ssRNA)
RNA: GCGGUGGGAAAUGUGAGAUGGGUUGCCGC
modifications: 2'-F G except 2'-OMe G at X (XCXXU-GGGA-AAUGU-GAGAU-GGGUU-XCCXC); 2'-OMe A,C,U; 5' C6NH2; 3' idT
Question: For B2, which IC50 [14] is on record?
Answer: 2 nM

B3: Aptamer 272 (ssRNA)
RNA: GCGACGGUAGAUUAUGGGCAGUGUGACCGCGC
modifications: 2'-F G except 2'-OMe G at X (XCX-A-CXXU-AX-AU-UAUGGGCAXU-GU-X-ACCX-CXC); 2'-OMe A,C,U; 5' C6NH2; 3' idT
Question: Which binding signal [15] does the source give for B3 here?
Answer: > 10 fold worse than Aptamer 147

B4: Aptamer 278 (ssRNA)
RNA: B3 RNA with A14U, U15C, C19U
modifications: 2'-F G except 2'-OMe G at X (XCX-A-CXXU-AX-AU-UUCGGGUAXU-GU-X-ACCX-CXC); 2'-OMe A,C,U; 5' C6NH2; 3' idT
Question: How did the binding signal [15] turn out when B4 was run?
Answer: > 10 fold worse than Aptamer 147
